Substitutions are numbered along the chain they refer to. Names may count otherwise.
B1: FLAG-tagged ZAPL C88R (ZnF 2 mutant) (natural protein, human, UniProt Q7Z2W4-1 1-902, looked up)
chain: MADPEVCCFITKILCAHGGRMALDALLQEIALSEPQLCEVLQVAGPDRFVVLETGGEAGITRSVVATTRARVCRRKYCQRPCDNLHLRKLNLLGRCNYSQSERNLCKYSHEVLSEENFKVLKNHELSGLNKEELAVLLLQSDPFFMPEICKSYKGEGRQQICNQQPPCSRLHICDHFTRGNCRFPNCLRSHNLMDRKVLAIMREHGLNPDVVQNIQDICNSKHMQKNPPGPRAPSSHRRNMAYRARSKSRDRFFQGSQEFLASASASAERSCTPSPDQISHRASLEDAPVDDLTRKFTYLGSQDRARPPSGSSKATDLGGTSQAGTSQRFLENGSQEDLLHGNPGSTYLASNSTSAPNWKSLTSWTNDQGARRKTVFSPTLPAARSSLGSLQTPEAVTTRKGTGLLSSDYRIINGKSGTQDIQPGPLFNNNADGVATDITSTRSLNYKSTSSGHREISSPRIQDAGPASRDVQATGRIADDADPRVALVNDSLSDVTSTTSSRVDDHDSEEICLDHLCKGCPLNGSCSKVHFHLPYRWQMLIGKTWTDFEHMETIEKGYCNPGIHLCSVGSYTINFRVMSCDSFPIRRLSTPSSVTKPANSVFTTKWIWYWKNESGTWIQYGEEKDKRKNSNVDSSYLESLYQSCPRGVVPFQAGSRNYELSFQGMIQTNIASKTQKDVIRRPTFVPQWYVQQMKRGPDHQPAKTSSVSLTATFRPQEDFCFLSSKKYKLSEIHHLHPEYVRVSEHFKASMKNFKIEKIKKIENSELLDKFTWKKSQMKEEGKLLFYATSRAYVESICSNNFDSFLHETHENKYGKGIYFAKDAIYSHKNCPYDAKNVVMFVAQVLVGKFTEGNITYTSPPPQFDSCVDTRSNPSVFVIFQKDQVYPQYVIEYTEDKACVIS
notes: zinc finger antiviral protein (ZAP), long isoform ZAPL, cloned from pTRIP-TagRFP-hZAPL; source: ZAP KO 293T cells, transfected (pcDNA3.1-3XFLAG), in lysate; not shown: 3XFLAG, N-terminal, kept
B2: FLAG-tagged ZAPL E148A/K151A/R170A (natural protein, human, UniProt Q7Z2W4-1 1-902, looked up)
chain: B1 chain with R88C, E148A, K151A, R170A
notes: zinc finger antiviral protein (ZAP), long isoform ZAPL, cloned from pTRIP-TagRFP-hZAPL; also called ZAPL EKR; EKR; source: ZAP KO 293T cells, transfected (pcDNA3.1-3XFLAG), in lysate; not shown: 3XFLAG, N-terminal, kept
B3: FLAG-tagged ZAPL H176A/F184A/R189A (natural protein, human, UniProt Q7Z2W4-1 1-902, looked up)
chain: B1 chain with R88C, H176A, F184A, R189A
notes: zinc finger antiviral protein (ZAP), long isoform ZAPL, cloned from pTRIP-TagRFP-hZAPL; also called ZAPL HFR; HFR; source: ZAP KO 293T cells, transfected (pcDNA3.1-3XFLAG), in lysate; not shown: 3XFLAG, N-terminal, kept
B4: FLAG-tagged ZAPL K107A/Y108A (natural protein, human, UniProt Q7Z2W4-1 1-902, looked up)
chain: B1 chain with R88C, K107A, Y108A
notes: zinc finger antiviral protein (ZAP), long isoform ZAPL, cloned from pTRIP-TagRFP-hZAPL; also called ZAPL KY; KY; source: ZAP KO 293T cells, transfected (pcDNA3.1-3XFLAG), in lysate; not shown: 3XFLAG, N-terminal, kept
B5: FLAG-tagged ZAPL H191R (ZnF 4 mutant) (natural protein, human, UniProt Q7Z2W4-1 1-902, looked up)
chain: B1 chain with R88C, H191R
notes: as for B1
B6: FLAG-tagged ZAPL C96A/Y98A (natural protein, human, UniProt Q7Z2W4-1 1-902, looked up)
chain: B1 chain with R88C, C96A, Y98A
notes: zinc finger antiviral protein (ZAP), long isoform ZAPL, cloned from pTRIP-TagRFP-hZAPL; also called ZAPL CY; CY; source: ZAP KO 293T cells, transfected (pcDNA3.1-3XFLAG), in lysate; not shown: 3XFLAG, N-terminal, kept
B7: FLAG-tagged ZAPL V72A/Y108A/F144A (natural protein, human, UniProt Q7Z2W4-1 1-902, looked up)
chain: B1 chain with V72A, R88C, Y108A, F144A
notes: zinc finger antiviral protein (ZAP), long isoform ZAPL, cloned from pTRIP-TagRFP-hZAPL; also called ZAPL VYF; VYF; source: ZAP KO 293T cells, transfected (pcDNA3.1-3XFLAG), in lysate; not shown: 3XFLAG, N-terminal, kept
B8: FLAG-tagged ZAPS C88R (ZnF 2 mutant) (natural protein, human, UniProt Q7Z2W4-2 1-699, looked up)
chain: MADPEVCCFITKILCAHGGRMALDALLQEIALSEPQLCEVLQVAGPDRFVVLETGGEAGITRSVVATTRARVCRRKYCQRPCDNLHLRKLNLLGRCNYSQSERNLCKYSHEVLSEENFKVLKNHELSGLNKEELAVLLLQSDPFFMPEICKSYKGEGRQQICNQQPPCSRLHICDHFTRGNCRFPNCLRSHNLMDRKVLAIMREHGLNPDVVQNIQDICNSKHMQKNPPGPRAPSSHRRNMAYRARSKSRDRFFQGSQEFLASASASAERSCTPSPDQISHRASLEDAPVDDLTRKFTYLGSQDRARPPSGSSKATDLGGTSQAGTSQRFLENGSQEDLLHGNPGSTYLASNSTSAPNWKSLTSWTNDQGARRKTVFSPTLPAARSSLGSLQTPEAVTTRKGTGLLSSDYRIINGKSGTQDIQPGPLFNNNADGVATDITSTRSLNYKSTSSGHREISSPRIQDAGPASRDVQATGRIADDADPRVALVNDSLSDVTSTTSSRVDDHDSEEICLDHLCKGCPLNGSCSKVHFHLPYRWQMLIGKTWTDFEHMETIEKGYCNPGIHLCSVGSYTINFRVMSCDSFPIRRLSTPSSVTKPANSVFTTKWIWYWKNESGTWIQYGEEKDKRKNSNVDSSYLESLYQSCPRGVVPFQAGSRNYELSFQGMIQTNIASKTQKDVIRRPTFVPQWYVQQMKRGPE
notes: zinc finger antiviral protein (ZAP), short isoform ZAPS, cloned from pTRIP-TagRFP-hZAPS; source: ZAP KO 293T cells, transfected (pcDNA3.1-3XFLAG), in lysate; not shown: 3XFLAG, N-terminal, kept
B9: FLAG-tagged ZAPS V72A/Y108A/F144A (natural protein, human, UniProt Q7Z2W4-2 1-699, looked up)
chain: B8 chain with V72A, R88C, Y108A, F144A
notes: zinc finger antiviral protein (ZAP), short isoform ZAPS, cloned from pTRIP-TagRFP-hZAPS; also called ZAPS VYF; VYF; source: ZAP KO 293T cells, transfected (pcDNA3.1-3XFLAG), in lysate; not shown: 3XFLAG, N-terminal, kept
B10: FLAG-tagged ZAPS E148A/K151A/R170A (natural protein, human, UniProt Q7Z2W4-2 1-699, looked up)
chain: B8 chain with R88C, E148A, K151A, R170A
notes: zinc finger antiviral protein (ZAP), short isoform ZAPS, cloned from pTRIP-TagRFP-hZAPS; also called ZAPS EKR; EKR; source: ZAP KO 293T cells, transfected (pcDNA3.1-3XFLAG), in lysate; not shown: 3XFLAG, N-terminal, kept
B11: FLAG-tagged ZAPS H191R (ZnF 4 mutant) (natural protein, human, UniProt Q7Z2W4-2 1-699, looked up)
chain: B8 chain with R88C, H191R
notes: as for B8
B12: FLAG-tagged ZAPS H176A/F184A/R189A (natural protein, human, UniProt Q7Z2W4-2 1-699, looked up)
chain: B8 chain with R88C, H176A, F184A, R189A
notes: zinc finger antiviral protein (ZAP), short isoform ZAPS, cloned from pTRIP-TagRFP-hZAPS; also called ZAPS HFR; HFR; source: ZAP KO 293T cells, transfected (pcDNA3.1-3XFLAG), in lysate; not shown: 3XFLAG, N-terminal, kept
B13: FLAG-tagged ZAPS C96A/Y98A (natural protein, human, UniProt Q7Z2W4-2 1-699, looked up)
chain: B8 chain with R88C, C96A, Y98A
notes: zinc finger antiviral protein (ZAP), short isoform ZAPS, cloned from pTRIP-TagRFP-hZAPS; also called ZAPS CY; CY; source: ZAP KO 293T cells, transfected (pcDNA3.1-3XFLAG), in lysate; not shown: 3XFLAG, N-terminal, kept
B14: FLAG-tagged ZAPS K107A/Y108A (natural protein, human, UniProt Q7Z2W4-2 1-699, looked up)
chain: B8 chain with R88C, K107A, Y108A
notes: zinc finger antiviral protein (ZAP), short isoform ZAPS, cloned from pTRIP-TagRFP-hZAPS; also called ZAPS KY; KY; source: ZAP KO 293T cells, transfected (pcDNA3.1-3XFLAG), in lysate; not shown: 3XFLAG, N-terminal, kept

Biological target: T1, myc-tagged TRIM25 WT (tripartite motif-containing protein 25) (UniProt Q14258 1-630)
T1 construct: tripartite motif-containing protein 25 (TRIM25), ubiquitin E3 ligase; full-length TRIM25 provided by J. U. Jung (Gack et al., 2007); source: ZAP KO 293T or TRIM25 KO 293T cells, transfected (pcDNA3.1-myc), in lysate; not shown: myc, N-terminal, kept
T1 sequence (Q14258 whole entry): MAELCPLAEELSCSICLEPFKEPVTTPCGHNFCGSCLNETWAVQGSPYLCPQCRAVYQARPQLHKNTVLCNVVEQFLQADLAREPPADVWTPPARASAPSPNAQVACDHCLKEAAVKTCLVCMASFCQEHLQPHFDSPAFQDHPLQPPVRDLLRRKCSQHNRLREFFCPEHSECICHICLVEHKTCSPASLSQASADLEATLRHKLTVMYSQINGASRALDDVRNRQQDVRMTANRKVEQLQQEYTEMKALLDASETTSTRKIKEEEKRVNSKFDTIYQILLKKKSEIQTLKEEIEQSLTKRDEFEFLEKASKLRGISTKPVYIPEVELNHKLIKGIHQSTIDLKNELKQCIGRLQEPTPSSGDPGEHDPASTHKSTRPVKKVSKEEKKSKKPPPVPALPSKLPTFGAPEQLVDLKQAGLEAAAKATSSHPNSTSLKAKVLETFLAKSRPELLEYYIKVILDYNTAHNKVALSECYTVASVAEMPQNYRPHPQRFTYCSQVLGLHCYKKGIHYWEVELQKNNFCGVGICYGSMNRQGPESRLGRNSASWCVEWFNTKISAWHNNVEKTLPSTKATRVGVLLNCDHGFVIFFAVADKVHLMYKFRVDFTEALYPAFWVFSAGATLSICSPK
Test: co-IP; myc IP (anti-myc beads) of myc-TRIM25 WT from lysates of ZAP KO 293T cells co-transfected with FLAG-ZAPS or FLAG-ZAPL WT or mutants; FLAG-ZAP detected by immunoblot; FLAG IP buffer (100 mM Tris-HCl 8.0, 150 mM NaCl, 5 mM EDTA, 1 mM DTT, 5% glycerol, 0.1% NP-40), 4°C, 45 min; FLAG IP band divided by myc IP band (ImageJ)
Conditions: partners not purified

Row | Binder | ZAP-TRIM25 interaction (co-IP, FLAG-ZAP band over myc-TRIM25 band, ImageJ)
1 | B1 | 1.13
2 | B2 | 0.196
3 | B3 | 0.03
4 | B4 | 0.086
5 | B5 | 0.899
6 | B6 | 0.329
7 | B7 | 0.574
8 | B8 | 0.45
9 | B9 | 0.792
10 | B10 | 0.189
11 | B11 | 1.05
12 | B12 | 0.205
13 | B13 | 0.55
14 | B14 | 0.33

Biological target: T1, myc-tagged TRIM25 WT (tripartite …)
Test: cell-based or functional assay
Conditions: not given

Row | Binder | JEV translation inhibition: fold inhibition of Renilla luciferase from a replication-defective JEV replicon, relative to empty plasmid, ZAP KO 293T cells, 4 h after replicon transfection
15 | B1 | 5.19 fold inhibition relative to empty plasmid transfection
16 | B5 | 9.05 fold inhibition relative to empty plasmid transfection
17 | B11 | 2.18 fold inhibition relative to empty plasmid transfection
